Measured values published in patent US12139520B2 (priority 2020, dated 2024).
Numbered stars: 1 amine (or outer) side, 2 acyl side, 3 side chain; on linkers, the order of the positions; unused ones are H or OH. Bridge positions count the residues as written; N and C are the ends. Square brackets hold non-standard residues; d marks the D form. Side chains are listed from the residue outwards. Ends that are not written are not given here. * marks the point of attachment. C20 diacid = O=C(O)CCCCCCCCCCCCCCCCCCC(=O)*; γGlu = O=C(O)[C@H](CCC(=O)[*:2])N[*:1]; Hyp = O=C(O)[C@@H]1C[C@@H](O)CN1; NMeI = CC[C@H](C)[C@H](NC)C(=O)O; AEEA = NCCOCCOCC(=O)O; Sar = CNCC(=O)O

T1: hAMY3R (human, UniProt P30988)
T1 sequence 1: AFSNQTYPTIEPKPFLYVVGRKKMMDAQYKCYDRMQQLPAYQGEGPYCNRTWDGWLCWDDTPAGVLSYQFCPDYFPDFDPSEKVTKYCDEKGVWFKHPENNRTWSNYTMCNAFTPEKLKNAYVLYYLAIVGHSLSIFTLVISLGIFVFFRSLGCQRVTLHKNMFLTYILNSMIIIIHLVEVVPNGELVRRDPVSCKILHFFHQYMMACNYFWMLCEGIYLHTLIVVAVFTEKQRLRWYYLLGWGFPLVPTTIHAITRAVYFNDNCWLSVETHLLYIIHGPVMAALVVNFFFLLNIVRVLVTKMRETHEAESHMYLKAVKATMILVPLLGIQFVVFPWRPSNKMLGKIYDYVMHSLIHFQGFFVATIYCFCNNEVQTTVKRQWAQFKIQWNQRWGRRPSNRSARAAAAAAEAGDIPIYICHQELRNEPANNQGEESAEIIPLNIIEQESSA
T1 sequence 2: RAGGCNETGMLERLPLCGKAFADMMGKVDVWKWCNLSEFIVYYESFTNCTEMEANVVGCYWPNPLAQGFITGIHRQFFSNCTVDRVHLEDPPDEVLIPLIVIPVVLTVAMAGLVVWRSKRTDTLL


target: T1, hAMY3R; assay: cell-based or functional assay

Binder | hAMY3R EC50 (cAMP) [nM]
{C20 diacid-γGlu}-KCNTATCTVQRLAHQIAQFYDKDKDNVAPPTNVGSNG[Hyp]-NH2 (disulfide 2-7 (inferred); not fully specified; ends not checked) [SEQ ID NO: 94] | 0.016
RCNASTCTVNRLADQITQFSNKDKAQVSPPTEVGPNS[Hyp]-NH2 (disulfide 2-7 (inferred); ends not checked) [SEQ ID NO: 9] | 0.006
KCNTATCATQRLANFLVHSSNNFGAIAPSTKVGSNGY [SEQ ID NO: 93] | 0.016
{C20 diacid-γGlu}-KCNTATCTVQRLAHQIYQFTNKDKDNVAPPTNVGSNG[Hyp]-NH2 (disulfide 2-7 (inferred); not fully specified; ends not checked) [SEQ ID NO: 82] | 0.015
{C20 diacid-γGlu}-KCNTSTCTVQRLAHQIAQFTDKDKDPVAPPTNVGSNG[Hyp]-NH2 (disulfide 2-7 (inferred); not fully specified; ends not checked) [SEQ ID NO: 88] | 0.015
{C20 diacid-γGlu}-KCNTATCTVQRLAHQIYQFTDKDKDNVAPRTKVGSNG[Hyp] (disulfide 2-7 (inferred); ends not checked) [SEQ ID NO: 99] | 0.017
KCNTATCTVQRLAHQIYQFTDKDKDNVAPRTEVGSNGY [SEQ ID NO: 102] | 0.018
KCNFATCTVQRLAHQIYQFTDKDKDNVAPPTEVGSNG[Hyp]-NH2 (disulfide 2-7 (inferred); ends not checked) [SEQ ID NO: 10] | 0.007
{C20 diacid-γGlu}-KCNTATCTVQRLAHQIAQFTDKNKDNVAPPTNVGSNG[Hyp]-NH2 (disulfide 2-7 (inferred); not fully specified; ends not checked) [SEQ ID NO: 87] | 0.015
{C20 diacid-γGlu}-KCNTATCTVQRLAHQIAQFTNKDKDNVAPPTNVGSNG[Hyp]-NH2 (disulfide 2-7 (inferred); not fully specified; ends not checked) [SEQ ID NO: 95] | 0.016
{C20 diacid-γGlu}-KCNTATCTVQRLAHQIYQFTDKDKDNVAPPTNVGSNG[Hyp]-NH2 (disulfide 2-7 (inferred); not fully specified; ends not checked) [SEQ ID NO: 77] | 0.014
GCRTGTCTVQRLAHQIYQFTDKDKDNVAPRTNVGPNGY [SEQ ID NO: 84] | 0.015
GCRFGTCTVQRLAHQIYQFTDKDKDNVAPRTNVSPNGY [SEQ ID NO: 98] | 0.017
{C20 diacid-γGlu}-KCNTATCTVARLAHQINQFTDKDKDNVAPPTNVGSNG[Hyp]-NH2 (disulfide 2-7 (inferred); not fully specified; ends not checked) [SEQ ID NO: 86] | 0.015

Other lines, results leading:

hAMY3R EC50 (cAMP) [nM] | Binder
0.016 | {C20 diacid-γGlu}-KCNTATCTVQRLAEQIYQFTDKDKDNVAPPTNVGSNT[Hyp]-NH2 (disulfide 2-7 (inferred); not fully specified; ends not checked) [SEQ ID NO: 96]
0.016 | {C20 diacid-γGlu}-KCNTATCTVQRLAHQIAQFTDKDKDPVAPPTNVGSNG[Hyp]-NH2 (disulfide 2-7 (inferred); not fully specified; ends not checked) [SEQ ID NO: 92]
0.014 | {C20 diacid-γGlu}-KCNTATCTVQRLAHQIAQFSDKDKDNVAPPTNVGSNG[Hyp]-NH2 (disulfide 2-7 (inferred); not fully specified; ends not checked) [SEQ ID NO: 79]
0.015 | {C20 diacid-γGlu}-KCNTATCTVQRLAHQIVQFTDKDKDNVAPPTNVGSNG[Hyp]-NH2 (disulfide 2-7 (inferred); not fully specified; ends not checked) [SEQ ID NO: 85]
0.015 | GCRFGTCTVQRLAHQIYQFTDKDKDNVAPRTNIGPNG[Hyp]-NH2 (disulfide 2-7 (inferred); ends not checked) [SEQ ID NO: 81]
0.014 | {C20 diacid-γGlu}-KCNTATCTVQRLAEQIAQFTDKDKDNVAPPTNVGSNG[Hyp]-NH2 (disulfide 2-7 (inferred); not fully specified; ends not checked) [SEQ ID NO: 78]
0.017 | {C20 diacid-γGlu}-KCNTATCTVQRLAEQIYQFTDKDKDQVAPPTNVGSNG[Hyp]-NH2 (disulfide 2-7 (inferred); ends not checked) [SEQ ID NO: 100]
0.015 | {C20 diacid-γGlu}-KCNTATCTVQRLAHQIYQFADKDKDNVAPPTNVGSNG[Hyp]-NH2 (disulfide 2-7 (inferred); not fully specified; ends not checked) [SEQ ID NO: 83]
0.015 | KCNTATCTVQRLAEQIYQFK([AEEA-AEEA-γGlu-C20 diacid])DKDKDNVAPPTNVGSNG[Hyp]-NH2 (disulfide 2-7 (inferred); not fully specified; ends not checked) [SEQ ID NO: 89]
0.016 | GCRFGTCTVQRLAHQIYQFTDKDKDNVAPRTNVGPNG[Hyp]-NH2 (disulfide 2-7 (inferred); ends not checked) [SEQ ID NO: 90]
0.017 | KCNAATCTVQRLAEQIYQFTDKDKDNVAPPTNVGSNG[Hyp]-NH2 (disulfide 2-7 (inferred); ends not checked) [SEQ ID NO: 101]
0.015 | {C20 diacid-γGlu}-RCQTATCATERLAHFLQRSSF[Sar]A[NMeI]LSSTEVGSNT[Hyp]-NH2 (disulfide 2-7 (inferred); not fully specified; ends not checked) [SEQ ID NO: 80]
0.016 | {C20 diacid-γGlu}-KCATATCTVQRLAEQIYQFTDKDKDNVAPPTNVGSNG[Hyp]-NH2 (disulfide 2-7 (inferred); not fully specified; ends not checked) [SEQ ID NO: 97]
0.018 | {C20 diacid-γGlu}-KCNTATCTVVRLAHQIYQFTDKDKDNVAPPTNVGSNG[Hyp]-NH2 (disulfide 2-7 (inferred); ends not checked) [SEQ ID NO: 103]
0.018 | {C20 diacid-γGlu}-KCNTATCTVQRLAHQIYQFYDKDKDNVAPPTNVGSNG[Hyp]-NH2 (disulfide 2-7 (inferred); ends not checked) [SEQ ID NO: 104]
0.016 | {C20 diacid-γGlu}-KCNTATCTVQRLAHQIYQFTDKNKDNVAPPTNVGSNG[Hyp]-NH2 (disulfide 2-7 (inferred); not fully specified; ends not checked) [SEQ ID NO: 91]

target: hAM1R (human, UniProt Q16602); assay: cell-based or functional assay

Binder | hAM1R EC50 (cAMP) [nM]
{C20 diacid-γGlu}-KCNTATCTVQRLAHQIAQFYDKDKDNVAPPTNVGSNG[Hyp]-NH2 (disulfide 2-7 (inferred); not fully specified; ends not checked) [SEQ ID NO: 94] | > 5000
RCNASTCTVNRLADQITQFSNKDKAQVSPPTEVGPNS[Hyp]-NH2 (disulfide 2-7 (inferred); ends not checked) [SEQ ID NO: 9] | > 5000
KCNTATCATQRLANFLVHSSNNFGAIAPSTKVGSNGY [SEQ ID NO: 93] | > 5000
{C20 diacid-γGlu}-KCNTATCTVQRLAHQIYQFTNKDKDNVAPPTNVGSNG[Hyp]-NH2 (disulfide 2-7 (inferred); not fully specified; ends not checked) [SEQ ID NO: 82] | 612
{C20 diacid-γGlu}-KCNTSTCTVQRLAHQIAQFTDKDKDPVAPPTNVGSNG[Hyp]-NH2 (disulfide 2-7 (inferred); not fully specified; ends not checked) [SEQ ID NO: 88] | > 5000
{C20 diacid-γGlu}-KCNTATCTVQRLAHQIYQFTDKDKDNVAPRTKVGSNG[Hyp] (disulfide 2-7 (inferred); ends not checked) [SEQ ID NO: 99] | 364
KCNTATCTVQRLAHQIYQFTDKDKDNVAPRTEVGSNGY [SEQ ID NO: 102] | > 5000
KCNFATCTVQRLAHQIYQFTDKDKDNVAPPTEVGSNG[Hyp]-NH2 (disulfide 2-7 (inferred); ends not checked) [SEQ ID NO: 10] | 552
{C20 diacid-γGlu}-KCNTATCTVQRLAHQIAQFTDKNKDNVAPPTNVGSNG[Hyp]-NH2 (disulfide 2-7 (inferred); not fully specified; ends not checked) [SEQ ID NO: 87] | > 5000
{C20 diacid-γGlu}-KCNTATCTVQRLAHQIAQFTNKDKDNVAPPTNVGSNG[Hyp]-NH2 (disulfide 2-7 (inferred); not fully specified; ends not checked) [SEQ ID NO: 95] | > 5000
{C20 diacid-γGlu}-KCNTATCTVQRLAHQIYQFTDKDKDNVAPPTNVGSNG[Hyp]-NH2 (disulfide 2-7 (inferred); not fully specified; ends not checked) [SEQ ID NO: 77] | > 5000
GCRTGTCTVQRLAHQIYQFTDKDKDNVAPRTNVGPNGY [SEQ ID NO: 84] | 2980
GCRFGTCTVQRLAHQIYQFTDKDKDNVAPRTNVSPNGY [SEQ ID NO: 98] | 66.9
{C20 diacid-γGlu}-KCNTATCTVARLAHQINQFTDKDKDNVAPPTNVGSNG[Hyp]-NH2 (disulfide 2-7 (inferred); not fully specified; ends not checked) [SEQ ID NO: 86] | > 5000

Next, values leading:

hAM1R EC50 (cAMP) [nM] | Binder
> 5000 | {C20 diacid-γGlu}-KCNTATCTVQRLAEQIYQFTDKDKDNVAPPTNVGSNT[Hyp]-NH2 (disulfide 2-7 (inferred); not fully specified; ends not checked) [SEQ ID NO: 96]
933 | {C20 diacid-γGlu}-KCNTATCTVQRLAHQIAQFTDKDKDPVAPPTNVGSNG[Hyp]-NH2 (disulfide 2-7 (inferred); not fully specified; ends not checked) [SEQ ID NO: 92]
> 5000 | {C20 diacid-γGlu}-KCNTATCTVQRLAHQIAQFSDKDKDNVAPPTNVGSNG[Hyp]-NH2 (disulfide 2-7 (inferred); not fully specified; ends not checked) [SEQ ID NO: 79]
> 5000 | {C20 diacid-γGlu}-KCNTATCTVQRLAHQIVQFTDKDKDNVAPPTNVGSNG[Hyp]-NH2 (disulfide 2-7 (inferred); not fully specified; ends not checked) [SEQ ID NO: 85]
138 | GCRFGTCTVQRLAHQIYQFTDKDKDNVAPRTNIGPNG[Hyp]-NH2 (disulfide 2-7 (inferred); ends not checked) [SEQ ID NO: 81]
> 5000 | {C20 diacid-γGlu}-KCNTATCTVQRLAEQIAQFTDKDKDNVAPPTNVGSNG[Hyp]-NH2 (disulfide 2-7 (inferred); not fully specified; ends not checked) [SEQ ID NO: 78]
> 5000 | {C20 diacid-γGlu}-KCNTATCTVQRLAEQIYQFTDKDKDQVAPPTNVGSNG[Hyp]-NH2 (disulfide 2-7 (inferred); ends not checked) [SEQ ID NO: 100]
815 | {C20 diacid-γGlu}-KCNTATCTVQRLAHQIYQFADKDKDNVAPPTNVGSNG[Hyp]-NH2 (disulfide 2-7 (inferred); not fully specified; ends not checked) [SEQ ID NO: 83]
> 5000 | KCNTATCTVQRLAEQIYQFK([AEEA-AEEA-γGlu-C20 diacid])DKDKDNVAPPTNVGSNG[Hyp]-NH2 (disulfide 2-7 (inferred); not fully specified; ends not checked) [SEQ ID NO: 89]
58.5 | GCRFGTCTVQRLAHQIYQFTDKDKDNVAPRTNVGPNG[Hyp]-NH2 (disulfide 2-7 (inferred); ends not checked) [SEQ ID NO: 90]
> 5000 | KCNAATCTVQRLAEQIYQFTDKDKDNVAPPTNVGSNG[Hyp]-NH2 (disulfide 2-7 (inferred); ends not checked) [SEQ ID NO: 101]
44.3 | {C20 diacid-γGlu}-RCQTATCATERLAHFLQRSSF[Sar]A[NMeI]LSSTEVGSNT[Hyp]-NH2 (disulfide 2-7 (inferred); not fully specified; ends not checked) [SEQ ID NO: 80]
> 5000 | {C20 diacid-γGlu}-KCATATCTVQRLAEQIYQFTDKDKDNVAPPTNVGSNG[Hyp]-NH2 (disulfide 2-7 (inferred); not fully specified; ends not checked) [SEQ ID NO: 97]
> 5000 | {C20 diacid-γGlu}-KCNTATCTVVRLAHQIYQFTDKDKDNVAPPTNVGSNG[Hyp]-NH2 (disulfide 2-7 (inferred); ends not checked) [SEQ ID NO: 103]
> 5000 | {C20 diacid-γGlu}-KCNTATCTVQRLAHQIYQFYDKDKDNVAPPTNVGSNG[Hyp]-NH2 (disulfide 2-7 (inferred); ends not checked) [SEQ ID NO: 104]
840 | {C20 diacid-γGlu}-KCNTATCTVQRLAHQIYQFTDKNKDNVAPPTNVGSNG[Hyp]-NH2 (disulfide 2-7 (inferred); not fully specified; ends not checked) [SEQ ID NO: 91]
